Earlier results in patent publication US20190382746.

Columns and labels:
[1] = tested on: PP7 coat protein (Pseudomonas phage PP7); settings: CITED? source not stated; cited from earlier work
[2] = tested on: RSG1.2 peptide (synthetic); settings: CITED? source not stated; cited from earlier work

Substance | Kd [1] | Kd [2]
PP7 aptamer (25 nt) | 2 nM | 
RSG1.2 aptamer (HIV RRE, 34 nt) |  | 6 nM
